Experimental data reported in patent publication US20090142372A1.

How the values were obtained:
[1] = biological target: vBSP-3 anchored on carrier bacteria (human; Listeria monocytogenes) (UniProt P21815); assay: flow cytometry of deactivated carrier bacteria displaying vBSP-3, grown in minimal medium (FIG. 5B)
[2] = biological target: vBSP-2 anchored on carrier bacteria (human; Listeria monocytogenes) (UniProt P21815); assay: flow cytometry of carrier bacteria displaying vBSP-2, before deactivation
[3] = biological target: eBSP tumor epitope fused to a bacterial carrier protein, anchored on carrier bacteria (human; Listeria monocytogenes); assay: flow cytometry of carrier bacteria displaying the eBSP-carrier fusion (FIG. 7B)
[4] = biological target: fusion peptide of pIUSind-mBSP3x anchored on Listeria (human; Listeria monocytogenes) (UniProt Q723K6); assay: flow cytometry of deactivated carrier bacteria displaying the 3-fold multimer (FIG. 11; rabbit tumor eBSP antiserum)
[5] = biological target: vBSP-3 anchored on carrier bacteria (human; Listeria monocytogenes) (UniProt P21815); assay: flow cytometry of carrier bacteria displaying vBSP-3, after deactivation
[6] = biological target: vBSP-2 anchored on carrier bacteria (human; Listeria monocytogenes) (UniProt P21815); assay: flow cytometry of carrier bacteria displaying vBSP-2, after deactivation
[7] = biological target: fusion peptide of pIUSind-mBSP4x anchored on Listeria (human; Listeria monocytogenes) (UniProt Q723K6); assay: flow cytometry of deactivated carrier bacteria displaying the 4-fold multimer (FIG. 11; rabbit tumor eBSP antiserum)
[8] = biological target: fusion peptide of pIUSind-mBSP5x anchored on Listeria (human; Listeria monocytogenes); assay: flow cytometry of deactivated carrier bacteria displaying the 5-fold multimer (FIG. 11; rabbit tumor eBSP antiserum)
[9] = biological target: vBSP-4 anchored on carrier bacteria (human; Listeria monocytogenes) (UniProt P21815); assay: flow cytometry of carrier bacteria displaying vBSP-4, after deactivation
[10] = biological target: vBSP-3 anchored on carrier bacteria (human; Listeria monocytogenes) (UniProt P21815); assay: flow cytometry of carrier bacteria displaying vBSP-3, grown in BHI and minimal media, before deactivation (FIG. 4A and B)
[11] = biological target: fusion peptide of pIUSind-mBSP6x anchored on Listeria (human; Listeria monocytogenes); assay: flow cytometry of carrier bacteria displaying the eBSP 6-fold multimer, after deactivation
[12] = biological target: fusion peptide of pIUSind-mBSP6x anchored on Listeria (human; Listeria monocytogenes); assay: flow cytometry of carrier bacteria displaying the eBSP 6-fold multimer, before deactivation
[13] = biological target: fusion peptide of pIUSind-mBSP5x anchored on Listeria (human; Listeria monocytogenes); assay: flow cytometry of carrier bacteria displaying the eBSP 5-fold multimer, before deactivation
[14] = biological target: fusion peptide of pIUSind-mBSP5x anchored on Listeria (human; Listeria monocytogenes); assay: flow cytometry of carrier bacteria displaying eBSP pentamer, BHI and minimal medium (FIG. 9, 10; tumor-epitope specific rabbit antibodies)
[15] = biological target: fusion peptide of pIUSind-mBSP1x anchored on Listeria (human; Listeria monocytogenes) (UniProt Q723K6); assay: flow cytometry of carrier bacteria displaying eBSP monomer, BHI and minimal medium (FIG. 9, 10; tumor-epitope specific rabbit antibodies)
[16] = biological target: fusion peptide of pIUSind-mBSP5x anchored on Listeria (human; Listeria monocytogenes); assay: flow cytometry of carrier bacteria displaying the eBSP 5-fold multimer, after deactivation
[17] = biological target: vBSP-3 anchored on carrier bacteria (human; Listeria monocytogenes) (UniProt P21815); assay: flow cytometry of carrier bacteria displaying vBSP-3, before deactivation
[18] = biological target: fusion peptide of pIUSind-mBSP6x anchored on Listeria (human; Listeria monocytogenes); assay: flow cytometry of deactivated carrier bacteria displaying the 6-fold multimer (FIG. 11; rabbit tumor eBSP antiserum)
[19] = biological target: vBSP-4 anchored on carrier bacteria (human; Listeria monocytogenes) (UniProt P21815); assay: flow cytometry of carrier bacteria displaying vBSP-4, before deactivation

Q: Which results are given for “Anti-Human Bone Sialoprotein (amino acids 108-122) Antibody, polyclonal antiserum, Immundiagnostik AG, Cat.-No. A4219.2, Lot H3150503”?
A: anchoring efficiency (proportion of positive bacteria in FACS) [1]: 41%; anchoring efficiency (proportion of positive bacteria in FACS) [2]: 58.4%; anchoring efficiency (proportion of positive bacteria in FACS) [3]: 6 to 7%; anchoring efficiency (proportion of positive bacteria in FACS) [4]: > 40%; anchoring efficiency (proportion of positive bacteria in FACS) [5]: 63.9%; anchoring efficiency (proportion of positive bacteria in FACS) [6]: 65%; anchoring efficiency (proportion of positive bacteria in FACS) [7]: > 40%; anchoring efficiency (proportion of positive bacteria in FACS) [8]: > 40%; anchoring efficiency (proportion of positive bacteria in FACS) [9]: 67.8%; anchoring efficiency (proportion of positive bacteria in FACS) [10]: > 52%; anchoring efficiency (proportion of positive bacteria in FACS) [11]: 46.5%; anchoring efficiency (proportion of positive bacteria in FACS) [12]: 34.2%; anchoring efficiency (proportion of positive bacteria in FACS) [13]: 42.5%; anchoring efficiency (proportion of positive bacteria in FACS) [14]: > 40%; anchoring efficiency (proportion of positive bacteria in FACS) [15]: < 10%; anchoring efficiency (proportion of positive bacteria in FACS) [16]: 40.1%; anchoring efficiency (proportion of positive bacteria in FACS) [17]: 52.3%; anchoring efficiency (proportion of positive bacteria in FACS) [18]: > 40%; anchoring efficiency (proportion of positive bacteria in FACS) [19]: 57.8%
